Our source for the ELISA_avg values is patent US20250026849A1 (ARCELLX, published 2025).

T1: BCMA (Homo sapiens (Human), UniProt Q02223 1-54, limits assumed)
T1 sequence: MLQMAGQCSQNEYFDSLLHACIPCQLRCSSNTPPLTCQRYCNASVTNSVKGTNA

B1: D-domain SEQ ID NO: 219 (designed binder)
chain: MGSWGEFDVRLFAIRERLSALGGSEAELAAFEKEIAAFESELQAYKGKGNPEVEYLRGYAAQIRSFLQAYRHN
B2: D-domain SEQ ID NO: 220 (designed binder)
chain: MGSWVEFDERLSAIRERLDALGGSEAELAAFEKEIAAFESELQAYKGKGNPEVEYLRLYAAQIRVFLQAYRHN
B3: D-domain SEQ ID NO: 216 (designed binder)
chain: MGSWDEFEFRLGALRWRLIALGGSEAELAAFEKEIAAFESELQAYKGKGNPEVEYLRFGAAHIRHILQAYRHN
B4: D-domain SEQ ID NO: 217 (designed binder)
chain: MGSWTEFYHRLYAIRERLSALGGSEAELAAFEKEIAAFESELQAYKGKGNPEVEYLRFGAAHIRHLLQAYRHN
B5: D-domain SEQ ID NO: 218 (designed binder)
chain: MGSWVEFETRLDAIRMRLGALGGSEAELAAFEKEIAAFESELQAYKGKGNPEVEYLRFGAAHIRALLQAYRHN
B6: D-domain SEQ ID NO: 213 (designed binder)
chain: MGSWYEFWKRLYAIEYRLFALGGSEAELAAFEKEIAAFESELQAYKGKGNPEVEALRKVAAKIREQLQAYRHN
B7: D-domain SEQ ID NO: 203 (designed binder)
chain: MGSWTEFWTRLNAIYERLDALGGSEAELAAFEKEIAAFESELQAYKGKGNPEVEKLRFTAASIRMYLQAYRHN
B8: D-domain SEQ ID NO: 181 (designed binder)
chain: MGSWAEFDLRLRAIAKRLVALGGSEAELAAFEKEIAAFESELQAYKGKGNPEVEMLRLDAAYIRGVLQAYRHN
B9: D-domain SEQ ID NO: 182 (designed binder)
chain: MGSWSEFWDRLYAIRIRLDALGGSEAELAAFEKEIAAFESELQAYKGKGNPEVEKLRSVAARIRNWLQAYRHN
B10: D-domain SEQ ID NO: 215 (designed binder)
chain: MGSWHEFWDRLYAIEFRLFALGGSEAELAAFEKEIAAFESELQAYKGKGNPEVESLRQVAAKIRWHLQAYRHN
B11: D-domain SEQ ID NO: 183 (designed binder)
chain: MGSWSEFWFRLGAIRNRLDALGGSEAELAAFEKEIAAFESELQAYKGKGNPEVEKLRDVAAHIRHWLQAYRHN
B12: D-domain SEQ ID NO: 211 (designed binder)
chain: MGSWTEFWERLYAIEYRLFALGGSEAELAAFEKEIAAFESELQAYKGKGNPEVEKLRSVAATIRYELQAYRHN
B13: D-domain SEQ ID NO: 210 (designed binder)
chain: MGSWMEFWDRLYAIEFRLFALGGSEAELAAFEKEIAAFESELQAYKGKGNPEVEKLRRVAATIRNELQAYRHN
B14: D-domain SEQ ID NO: 184 (designed binder)
chain: MGSWSEFNDRLDAIRWRLDALGGSEAELAAFEKEIAAFESELQAYKGKGNPEVEWLRQVAATIRYRLQAYRHN
B15: D-domain SEQ ID NO: 212 (designed binder)
chain: MGSWNEFWERLYAIELRLFALGGSEAELAAFEKEIAAFESELQAYKGKGNPEVEKLRMTAAYIRNELQAYRHN
B16: D-domain SEQ ID NO: 179 (designed binder)
chain: MGSWVEFWERLDAIDNRLGALGGSEAELAAFEKEIAAFESELQAYKGKGNPEVEWLRWHAAYIRGYLQAYRHN
B17: D-domain SEQ ID NO: 180 (designed binder)
chain: MGSWAEFWDRLDAIDSRLNALGGSEAELAAFEKEIAAFESELQAYKGKGNPEVEYLREWAAYIRGYLQAYRHN

The target of the test is T1, BCMA. Description: ELISA, format not described. Also on record: unit not given here. In general terms: An ELISA detects its analyte on a solid surface through an enzyme-linked reagent.
B1 gave an ELISA_avg of 7.35.
The figure for B2 is 5.61; for B3 it is 9.2; for B4 it is 9.63.
Under B5 stands 14.1; under B6, 14.8; under B7, 8.43.
The figure for B8 is 4.09; for B9 it is 12.5.
On to B10, for which the ELISA_avg worked out at 7.3.
The molecule B11 gave an ELISA_avg of 14.9.
B12 gave an ELISA_avg of 12.7.
The figure for B13 is 11.7; for B14 it is 13.6; for B15 it is 9.95.
As to B16, the ELISA_avg was 11.4.
The figure for B17 is 18.2.
